From article PMC7913688, “Human Rev1 relies on insert-2 to promote selective binding and accurate replication of stabilized G-quadruplex motifs”
Residue numbers refer to the chain shown, from its start.

T1: hRev1 330-833 E466K (human, UniProt Q9UBZ9 330-833, E466K)
T1 sequence: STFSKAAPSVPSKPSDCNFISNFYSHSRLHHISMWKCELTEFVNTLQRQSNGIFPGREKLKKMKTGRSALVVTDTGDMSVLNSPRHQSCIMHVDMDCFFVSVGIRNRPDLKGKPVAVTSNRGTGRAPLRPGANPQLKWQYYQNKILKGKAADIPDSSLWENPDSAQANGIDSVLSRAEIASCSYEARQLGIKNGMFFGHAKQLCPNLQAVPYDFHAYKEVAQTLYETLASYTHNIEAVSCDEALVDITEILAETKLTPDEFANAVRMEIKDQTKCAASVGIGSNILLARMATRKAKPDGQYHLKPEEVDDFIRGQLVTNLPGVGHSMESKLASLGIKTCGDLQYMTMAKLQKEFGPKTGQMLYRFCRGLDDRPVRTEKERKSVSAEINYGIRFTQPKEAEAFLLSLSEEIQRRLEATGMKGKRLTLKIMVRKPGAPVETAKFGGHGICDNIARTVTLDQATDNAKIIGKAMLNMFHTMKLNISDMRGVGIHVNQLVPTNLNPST

T2: hRev1 330-833 E466A (human, UniProt Q9UBZ9 330-833, E466A)
T2 sequence: T1 sequence with K137A

T3: hRev1 330-833 L358A (human, UniProt Q9UBZ9 330-833, L358A)
T3 sequence: T1 sequence with L29A, K137E

T4: hRev1 330-833 polymerase core (human, UniProt Q9UBZ9 330-833)
T4 sequence: T1 sequence with K137E


Experiments:
hRev1 330-833 E466K = biological target: T1, hRev1 330-833 E466K; experiment: fluorescence polarization; 100 mM KCl?; Fluorescence polarization: 1 nM FAM-DNA, 100 mM KCl or LiCl; DNA annealed in 50 mM HEPES pH 7.5; full buffer as in cited ref 17, temperature not stated. Footprinting: 50 mM HEPES pH 7.5, 100 mM KCl, 10 uM protein, 30 uM ssDNA, room temperature; conditions: protein: recombinant, label: 5'-FAM
hRev1 330-833 E466A = biological target: T2, hRev1 330-833 E466A; experiment: as above; conditions: protein: recombinant, label: 5'-FAM
hRev1 330-833 L358A = biological target: T3, hRev1 330-833 L358A; experiment: as above; conditions: protein: recombinant, label: 5'-FAM
[1] = biological target: T4, hRev1 330-833 polymerase core; experiment: fluorescence polarization; 100 mM LiCl; Fluorescence polarization: 1 nM FAM-DNA, 100 mM KCl or LiCl; DNA annealed in 50 mM HEPES pH 7.5; full buffer as in cited ref 17, temperature not stated. Footprinting: 50 mM HEPES pH 7.5, 100 mM KCl, 10 uM protein, 30 uM ssDNA, room temperature; conditions: protein: recombinant; label: 5'-FAM
[2] = parallel G4 (1:2:1 loops) in K+

Binder	Kd (hRev1 330-833 E466K; [2]) [nM]	Kd (hRev1 330-833 E466A; [2]) [nM]	Kd (hRev1 330-833 L358A; [2]) [nM]	Kd [1] [nM]	Kd (hRev1 330-833 E466K) [nM]	Kd (hRev1 330-833 E466A) [nM]	Kd (hRev1 330-833 L358A) [nM]
AGGGTGGGTAGGGTGGGTTATGAGATGAT (structured_DNA) [Myc 14/23 ss G4]	43 ± 16	280 ± 20	77 ± 8	–	–	–	–
AGCGTGCGTAGCGTGCGTTATGAGATGAT (ssDNA) [Non-G4 Myc control ss]	–	–	–	760 ± 290	1300 ± 300	1100 ± 130	660 ± 140
